Data as given in US11780927B2, “Anti-CD40 antibodies for use in prevention of graft rejection” (NOVARTIS AG, priority 2018, dated 2023).
“And” between values parts separate entries of the source, which are not always exact repeats. Identical values can stand only once. Each block holds one molecule with its values, some of them ahead of it.

How the values were obtained:
[1] = system: transplanted kidney grafts; experiment: Allograft biopsies scored by Chronic Allograft Damage Index (CADI); type: in vivo, human; details: final biopsy
Source text: The quality of the graft was estimated using the Chronic Allograph Damage Index (CADI) (Isoniemi et al. 1992 and 1994), where scores of ≤1 reflects normal renal histology and higher scores correlate with poor long-term outcome (Hayry et al. 2004, Yilmaz et al. 2007, Yilmaz et al. 2003). Pristine renal histology was found in 3 of 5 patients on iscalimab (60%) and in none of the 7 treated with tacrolimus (0%). The average CADI was 1.60±0.60 for CFZ533 (n=5) vs. 5.14±0.80 for tacrolimus (n=7), (mean±SEM, p<0.01 using Student t)
A PoC Study in de Novo Renal Transplantation (CCFZ533X2101/NCT02217410) using CFZ533 was performed. […] Allograft biopsies were performed on a subset of study patients. A pathologist, blinded to therapy, reviewed and scored all biopsy slides using the established Banff criteria and calculated the chronic allograft damage index (CADI, Nickerson P et al., Legendre C et al., Seron D et al.,). A CADI of 1 or less was considered as ‘normal renal histology’. Two patients were excluded from the analysis, since they switched therapy after only 2 months. […] The average CADI at final biopsy was 1.6±0.6 for CFZ533 and 5.1±0.8 for tacrolimus, p<0.01.

recombinant human CD40 = recombinant human CD40 (Homo sapiens, UniProt P25942); experiment: Surface plasmon resonance analysis of affinity for CD40; type: binding; details: SPR, 25° C.
Experimental: The binding analyses of recombinant CFZ533 were performed at 25° C. with HBS−EP+ as running buffer. A typical binding analysis cycle consisted of three steps: (i) capture of the antibody via ProteinA immobilized on the chip surface, (ii) binding of CD40 antigen to the captured anti-CD40 antibody, and (iii) regeneration of the ProteinA surface. To determine the kinetic rate constants of the antigen-antibody binding interactions, binding data were processed, double referenced with responses from blank injections. The binding curves were fitted locally using the 1:1 interaction model of the Biacore T100 Evaluation software to determine kinetic rate constants. The value for the equilibrium dissociation constant (KD) was calculated as the ratio of the rate constants kd/ka. All binding measurements were performed in two independent experiments.

CD20pos B cells = experiment: In vitro B cell depletion in human whole blood; type: cell-based; details: 72 hours; Rituximab 50 μg/ml, CFZ533 dose titration
Experimental: See supplementary material for detailed methods. Briefly, the ability of CFZ533 to mediated depletion of CD20^pos B cells was monitored in human whole blood over a period of three days in comparison to the B cell depleting antibody Rituximab. For CDC, CFZ533 or Rituximab were incubated with RAJI B cells in the presence or absence of rabbit complement and cell lysis was assessed by luminescence.
B cells numbers were determined based on CD45pos and CD19pos events falling within lymphocyte FSC (forward-scattered light)/SSC (side-scattered light) gate. Results for individual antibody concentrations were calculated as percent remaining B cells with reference to untreated samples and graphed as a function of log-transformed antibody concentration (adjusted to 100% and shown as a dotted line). Data represent the mean and SD of eight independent donors. […] Concentration dependent killing of the Raji cells was analyzed after 2 hours, where the viability of the cells was measured by determination of the ATP concentration in each well using luciferase. Results are presented as isotype-control normalized relative luciferase units (RLU) as a function of log-transformed antibody concentration.

human B cell line RI-1 = experiment: Internalization by image flow cytometry; type: cell-based; details: 3 hours at 37° C.
Experimental: Internalization of fluorescently tagged CFZ533 and rCD154 was assessed in vitro using the human B cell line RI-1 (Th'ng et al, 1987). CD40 dependence of CFZ533 internalization was assessed using a CD40 knockout RI-1 cell line. Internalization was assessed using an Amnis® image flow cytometer (Merck KHaA, Darnstadt) according to the manufacturer's instructions and data analyzed using ImageStream®^X software.
FIG. 8B. Relative internalization erode of CFZ533 and rCD154 under permissive conditions (non-permissive erode values subtracted). Each dot represents data from an individual experiment and the population mean is indicated as a horizontal red line. FIG. 8C. Representative images of individual CD40 expressing or CD40 knock-out RI-1 cells cultured with Alexa488 labeled CFZ533 for 3 hours at 37° C. In all experiments, cells were co-stained with AlexaFlour 647 labeled CD45 to demark the cell membrane.

Chain of recombinant human CD40 (P25942 21-277): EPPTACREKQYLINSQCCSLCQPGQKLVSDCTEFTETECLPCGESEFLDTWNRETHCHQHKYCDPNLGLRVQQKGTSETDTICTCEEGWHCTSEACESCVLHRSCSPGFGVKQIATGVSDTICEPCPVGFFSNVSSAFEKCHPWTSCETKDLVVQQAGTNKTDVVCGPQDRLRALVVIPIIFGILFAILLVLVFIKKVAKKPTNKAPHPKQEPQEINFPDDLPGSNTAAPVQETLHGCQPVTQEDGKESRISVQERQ

Molecule: C=CC[C@@H]1/C=C(\C)C[C@H](C)C[C@H](OC)[C@H]2O[C@@](O)(C(=O)C(=O)N3CCCC[C@H]3C(=O)O[C@H](/C(C)=C/[C@@H]3CC[C@@H](O)[C@H](OC)C3)[C@H](C)[C@@H](O)CC1=O)[C@H](C)C[C@@H]2OC [tacrolimus, reference compound]
- average CADI (mean±SEM) [1]: 5.14±0.80 and 5.1±0.8

- ka [1/Ms] (recombinant human CD40): 2.84 ± 0.67 × 10^5 1/Ms
- kd [1/s] (recombinant human CD40): 1.26 ± 0.03 × 10^−4 1/s
Molecule: HCD122: parental antibody, wild-type IgG1 version of CFZ533 [reference compound]

Molecule: Rituximab: depleting anti-CD20 antibody [reference compound]
- B cells eliminated in human whole blood (CD20pos B cells): approximately 80%

B1: rCD154: recombinant human CD154, the CD40 ligand (protein)
chain: MQKGDQNPQIAAHVISEASSKTTSVLQWAEKGYYTMSNNLVTLENGKQLTVKRQGLYYIYAQVTFCSNREASSQAPFIASLCLKSPGRFERILLRAANTHSSAKPCGQQSIHLGGVFELQPGASVFVNVTDPSQVSHGTGFTSFGLLKL
- Internalization by RI-1 B cells (human B cell line RI-1): internalized
